Data on one substance can be found in patent publication US20160136231A1.

The target of this assay is mouse ChemR23, PathHunter β-Arrestin cell line (mouse) (UniProt P97468). The assay can be described thus: cell-based or functional assay.
Chain of mouse ChemR23, PathHunter β-Arrestin cell line (mouse) (P97468 whole entry): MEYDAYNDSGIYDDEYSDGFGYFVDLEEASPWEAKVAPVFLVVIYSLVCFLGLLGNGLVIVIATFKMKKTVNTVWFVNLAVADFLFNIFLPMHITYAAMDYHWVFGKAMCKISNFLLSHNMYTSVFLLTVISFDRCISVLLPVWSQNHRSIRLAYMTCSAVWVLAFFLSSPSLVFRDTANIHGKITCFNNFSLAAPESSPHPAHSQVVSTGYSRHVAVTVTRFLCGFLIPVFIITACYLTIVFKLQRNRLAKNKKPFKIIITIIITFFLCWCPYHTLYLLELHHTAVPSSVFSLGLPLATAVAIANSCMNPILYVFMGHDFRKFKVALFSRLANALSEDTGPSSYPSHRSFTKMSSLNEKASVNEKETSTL

For the substance “hrChemerin (from UniProt Q99969 21-157) (ligand)”, the EC50, Arrestin, Agonist (RC50, uM) came out at 0.00154 µM.
